Reference: patent publication US20240059758A1 (CORAT THERAPEUTICS, published 2024)

B1: YU536-D04 (IgG) (antibody, V domains shown)
VH: QVQLVQSGGGLVQPGGSLRLSCAASGLTVSSNYMSWVRQAPGKGLEWVSVIYSGGSTYYADSVKGRFIISRDNSKNTLYLQMNSLRAEDTAVYYCARDLVVMGLDVWGKGTLVTVSS
VL: DIQLTQSPSSLSASVGDRVTITCRASQGISSYLAWYQQKPGKAPKLLIYAASTLQSGVPSRFSGSGSGTDFTLTISSLQPEDFATYYCQQLNSYPITFGQGTKLEIK
B2: YU537-H11 (IgG) (antibody, V domains shown)
VH: EVQLLESGGGLIQPGGSLRLSCAASGLTVSSNYMSWVRQAPGKGLEWVSVIYSGGSTYYADSVKGRFTISRDNSKNALYLQMNSLRAEDTAVYYCARGESGSPYGMDVWGQGTLVTVSS
VL: QSVLTQPPSVSAAPGQKVTISCSGSSSNIGNNYVSWYQQLPGTAPKLLIYDTNKRPSGIPDRFSGSKSGTSATLGITGLQTGDEADYYCATWDSSLSVGVFGGGTKLTVL
B3: STE90-C11 (IgG) (antibody, V domains shown)
VH: QVQLVESGGGLVQPGGSLRLSCAASGLTVSSNYMSWVRQAPGKGLEWVSVIYSGGSTYYADSVKGRFTISRDDSKNTLYLQMNSLRAEDTAVYYCARDVADAFDIWGQGTMVTVSS
VL: DIVMTQSPSFLSASVGDRVTITCRASQGISSYLAWYQQKPGKAPKLLIYAASTLQSGVPSRFSGSGSGTEFTLTISSLQPEDFATYYCQQLNSYPPFTFGPGTKVDIK
B4: STE90-C11 (Fab) (Fab, V domains shown)
VH: QVQLVESGGGLVQPGGSLRLSCAASGLTVSSNYMSWVRQAPGKGLEWVSVIYSGGSTYYADSVKGRFTISRDDSKNTLYLQMNSLRAEDTAVYYCARDVADAFDIWGQGTMVTVSS
VL: DIVMTQSPSFLSASVGDRVTITCRASQGISSYLAWYQQKPGKAPKLLIYAASTLQSGVPSRFSGSGSGTEFTLTISSLQPEDFATYYCQQLNSYPPFTFGPGTKVDIK
B5: YU537-H11 (Fab) (Fab, V domains shown)
VH: EVQLLESGGGLIQPGGSLRLSCAASGLTVSSNYMSWVRQAPGKGLEWVSVIYSGGSTYYADSVKGRFTISRDNSKNALYLQMNSLRAEDTAVYYCARGESGSPYGMDVWGQGTLVTVSS
VL: QSVLTQPPSVSAAPGQKVTISCSGSSSNIGNNYVSWYQQLPGTAPKLLIYDTNKRPSGIPDRFSGSKSGTSATLGITGLQTGDEADYYCATWDSSLSVGVFGGGTKLTVL
B6: YU536-D04 (Fab) (Fab, V domains shown)
VH: QVQLVQSGGGLVQPGGSLRLSCAASGLTVSSNYMSWVRQAPGKGLEWVSVIYSGGSTYYADSVKGRFIISRDNSKNTLYLQMNSLRAEDTAVYYCARDLVVMGLDVWGKGTLVTVSS
VL: DIQLTQSPSSLSASVGDRVTITCRASQGISSYLAWYQQKPGKAPKLLIYAASTLQSGVPSRFSGSGSGTDFTLTISSLQPEDFATYYCQQLNSYPITFGQGTKLEIK

Assays:
[1] = molecular target: T1, SARS-CoV-2 glycoprotein S (spike) on infectious virus (SARS-CoV-2, UniProt P0DTC2 14-1273); assay: cell-based or functional assay
[2] = molecular target: receptor binding domain (RBD) of the S1-subunit of SARS-CoV-2 glycoprotein S (SARS-CoV-2, UniProt P0DTC2 319-541); assay: titration ELISA, IgG on RBD
S1-His [3] = molecular target: T2, S1-His (SARS-CoV-2, UniProt P0DTC2 16-685); assay: BLI, antibody on FAB2G capture sensor, S1-His in solution
[4] = molecular target: T1, SARS-CoV-2 glycoprotein S (spike) on …; assay: cell-based or functional assay; remark: listed apart in the source
S1-His [5] = molecular target: T2, S1-His; assay: BLI, antibody on Protein A sensor, S1-His in solution
[6] = molecular target: S1-subunit of the SARS-CoV-2 glycoprotein S (SARS-CoV-2, UniProt P0DTC2 16-685); assay: titration ELISA, IgG on S1
[7] = molecular target: RBD-mFc (Sino Biologicals) (SARS-CoV-2, UniProt P0DTC2 319-541); assay: BLI, RBD-mFc on anti-mouse Fc capture sensor, Fab in solution

Row | Binder | Neutralization [1] | EC50 [2] | Kd (S1-His [3]) | Virus neutralization (24-well titration) TCID50 (IgG) [4] | Virus neutralization (96-well titration) TCID50 (IgG) [4] | Kd (S1-His [5]) | EC50 [6] | Kd [7]
1 | B1 | 0.4 nM | 1.1 nM | 5.49 nM | 0.4 nM | 0.2 nM | 23 nM |  | 
2 | B2 | 0.47 nM | 1.4 nM | 11.7 nM | 0.47 nM | 0.27 nM | 32.5 nM |  | 
3 | B3 | 0.56 nM | 0.3 nM | 1.56 nM | 0.56 nM | 0.91 nM | 6.53 nM | 0.3 nM | 
4 | B4 |  |  |  |  |  |  |  | 8.14 nM
5 | B5 |  |  |  |  |  |  |  | 61.1 nM
6 | B6 |  |  |  |  |  |  |  | 17.5 nM
